Data published in patent US20150344570A1 (published 2015).

B1: GpH7-A5/GpH7-B3 variant H268_10E/GpL16-k0 (antibody, human IgG1, kappa)
heavy 1: not shown
heavy 2: not shown
light: DIVMTQSPLSLPVTPGEPASISCQASESLVHSNRNTYLHWYLQKPGQSPQLLIYKVSNRFSGVPDRFSGSGSGTDFTLKISRVEAEDVGVYYCSQNTHVPPTFGQGTKVEIERTVAAPSVFIFPPSDEQLKSGTASVVCLLNNFYPREAKVQWKVDNALQSGNSQESVTEQDSKDSTYSLSSTLTLSKADYEKHKVYACEVTHQGLSSPVTKSFNRGEC
notes: also called He Ab H268_10E
B2: GpH7-B3 variant S337_18N/GpL16-k0 (antibody, human IgG1, kappa)
heavy: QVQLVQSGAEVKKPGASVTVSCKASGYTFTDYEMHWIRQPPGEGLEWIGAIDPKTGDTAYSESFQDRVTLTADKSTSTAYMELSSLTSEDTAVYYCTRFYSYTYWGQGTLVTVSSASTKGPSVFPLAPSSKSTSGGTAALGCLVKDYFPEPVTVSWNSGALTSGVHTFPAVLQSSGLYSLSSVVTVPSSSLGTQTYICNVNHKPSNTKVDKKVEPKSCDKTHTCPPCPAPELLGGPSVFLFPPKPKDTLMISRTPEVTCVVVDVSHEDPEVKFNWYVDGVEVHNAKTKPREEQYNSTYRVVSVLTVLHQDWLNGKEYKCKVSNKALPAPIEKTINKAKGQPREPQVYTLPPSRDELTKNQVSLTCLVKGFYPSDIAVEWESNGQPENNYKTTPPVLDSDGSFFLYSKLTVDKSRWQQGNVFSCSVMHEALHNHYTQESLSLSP
light: B1 light
notes: also called Ho Ab S337_18N
B3: GpH7-B3 variant S239_09D/GpL16-k0 (antibody, human IgG1, kappa)
heavy: not shown
light: B1 light
notes: also called Ho Ab S239_09D
B4: GpH7-A5/GpH7-B3 variant K326_06M/GpL16-k0 (antibody, human IgG1, kappa)
heavy 1: not shown
heavy 2: not shown
light: B1 light
notes: also called He Ab K326_06M
B5: GpH7-B3 variant K334_03V/GpL16-k0 (antibody, human IgG1, kappa)
heavy: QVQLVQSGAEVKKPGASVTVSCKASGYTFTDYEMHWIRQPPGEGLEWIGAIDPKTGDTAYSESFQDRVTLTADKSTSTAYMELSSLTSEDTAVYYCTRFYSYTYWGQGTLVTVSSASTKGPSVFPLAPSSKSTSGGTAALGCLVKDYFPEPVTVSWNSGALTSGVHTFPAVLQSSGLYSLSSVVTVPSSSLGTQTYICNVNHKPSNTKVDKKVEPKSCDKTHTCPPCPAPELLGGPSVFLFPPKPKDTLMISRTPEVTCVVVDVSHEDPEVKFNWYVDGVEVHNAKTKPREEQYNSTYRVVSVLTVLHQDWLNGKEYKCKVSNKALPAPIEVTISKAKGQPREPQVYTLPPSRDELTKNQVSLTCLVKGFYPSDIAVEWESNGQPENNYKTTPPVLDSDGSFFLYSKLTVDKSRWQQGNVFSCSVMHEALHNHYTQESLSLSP
light: B1 light
notes: also called Ho Ab K334_03V
B6: GpH7-B3 variant S267_09D/GpL16-k0 (antibody, human IgG1, kappa)
heavy: not shown
light: B1 light
notes: also called Ho Ab S267_09D
B7: GpH7-B3 variant Q295_10E/GpL16-k0 (antibody, human IgG1, kappa)
heavy: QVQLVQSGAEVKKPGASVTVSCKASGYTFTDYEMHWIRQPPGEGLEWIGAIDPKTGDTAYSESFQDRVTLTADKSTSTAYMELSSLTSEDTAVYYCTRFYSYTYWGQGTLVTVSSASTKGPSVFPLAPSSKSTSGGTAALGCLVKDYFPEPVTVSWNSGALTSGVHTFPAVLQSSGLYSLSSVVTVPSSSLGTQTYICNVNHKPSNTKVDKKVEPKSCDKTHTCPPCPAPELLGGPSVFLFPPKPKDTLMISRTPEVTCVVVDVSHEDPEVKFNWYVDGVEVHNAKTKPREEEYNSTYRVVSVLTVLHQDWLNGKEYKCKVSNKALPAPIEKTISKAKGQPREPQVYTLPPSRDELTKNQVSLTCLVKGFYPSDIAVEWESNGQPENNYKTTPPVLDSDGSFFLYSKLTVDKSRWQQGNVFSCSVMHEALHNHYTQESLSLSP
light: B1 light
notes: also called Ho Ab Q295_10E
B8: GpH7-A5/GpH7-B3 variant I336_10E/GpL16-k0 (antibody, human IgG1, kappa)
heavy 1: not shown
heavy 2: not shown
light: B1 light
notes: also called He Ab I336_10E
B9: GpH7-B3 variant K334_07I/GpL16-k0 (antibody, human IgG1, kappa)
heavy: not shown
light: B1 light
notes: also called Ho Ab K334_07I
B10: GpH7-A5/GpH7-B3 variant K326_07I/GpL16-k0 (antibody, human IgG1, kappa)
heavy 1: not shown
heavy 2: not shown
light: B1 light
notes: also called He Ab K326_07I
B11: GpH7-A5/GpH7-B3 variant I332_19Q/GpL16-k0 (antibody, human IgG1, kappa)
heavy 1: not shown
heavy 2: not shown
light: B1 light
notes: also called He Ab I332_19Q
B12: GpH7-B3 variant K334_16H/GpL16-k0 (antibody, human IgG1, kappa)
heavy: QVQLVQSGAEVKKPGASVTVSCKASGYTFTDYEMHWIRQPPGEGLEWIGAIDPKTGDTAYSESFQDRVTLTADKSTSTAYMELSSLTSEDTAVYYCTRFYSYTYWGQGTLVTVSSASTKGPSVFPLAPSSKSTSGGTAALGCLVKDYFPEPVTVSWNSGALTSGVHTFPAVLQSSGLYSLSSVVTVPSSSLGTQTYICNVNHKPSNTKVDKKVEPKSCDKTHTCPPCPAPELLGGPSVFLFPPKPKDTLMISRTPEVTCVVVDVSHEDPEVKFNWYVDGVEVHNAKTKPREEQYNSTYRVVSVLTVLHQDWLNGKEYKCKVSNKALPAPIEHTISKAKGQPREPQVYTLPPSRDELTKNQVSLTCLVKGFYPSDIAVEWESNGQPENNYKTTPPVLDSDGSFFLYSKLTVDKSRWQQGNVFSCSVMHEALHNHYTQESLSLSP
light: B1 light
notes: also called Ho Ab K334_16H
B13: GpH7-A5/GpH7-B3 variant I336_03V/GpL16-k0 (antibody, human IgG1, kappa)
heavy 1: not shown
heavy 2: not shown
light: B1 light
notes: also called He Ab I336_03V
B14: GpH7-A5/GpH7-B3 variant K326_09D/GpL16-k0 (antibody, human IgG1, kappa)
heavy 1: not shown
heavy 2: not shown
light: B1 light
notes: also called He Ab K326_09D
B15: GpH7-A5/GpH7-B3 variant I336_02A/GpL16-k0 (antibody, human IgG1, kappa)
heavy 1: not shown
heavy 2: not shown
light: B1 light
notes: also called He Ab I336_02A
B16: GpH7-B3 variant T335_07I/GpL16-k0 (antibody, human IgG1, kappa)
heavy: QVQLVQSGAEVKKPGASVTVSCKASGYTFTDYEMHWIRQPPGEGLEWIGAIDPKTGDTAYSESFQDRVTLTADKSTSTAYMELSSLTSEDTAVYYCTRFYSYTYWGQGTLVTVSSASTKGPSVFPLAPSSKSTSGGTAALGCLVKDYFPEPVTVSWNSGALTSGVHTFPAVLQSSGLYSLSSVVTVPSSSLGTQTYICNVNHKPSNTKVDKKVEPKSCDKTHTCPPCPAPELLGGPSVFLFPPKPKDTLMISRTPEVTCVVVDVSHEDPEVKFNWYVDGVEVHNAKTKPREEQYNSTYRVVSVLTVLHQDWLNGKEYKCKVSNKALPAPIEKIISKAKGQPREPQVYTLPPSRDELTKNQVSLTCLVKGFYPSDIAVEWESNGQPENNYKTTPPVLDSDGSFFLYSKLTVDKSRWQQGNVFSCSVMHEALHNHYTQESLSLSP
light: B1 light
notes: also called Ho Ab T335_07I
B17: GpH7-A5/GpH7-B3 variant I332_13S/GpL16-k0 (antibody, human IgG1, kappa)
heavy 1: not shown
heavy 2: not shown
light: B1 light
notes: also called He Ab I332_13S
B18: GpH7-B3 variant K334_18N/GpL16-k0 (antibody, human IgG1, kappa)
heavy: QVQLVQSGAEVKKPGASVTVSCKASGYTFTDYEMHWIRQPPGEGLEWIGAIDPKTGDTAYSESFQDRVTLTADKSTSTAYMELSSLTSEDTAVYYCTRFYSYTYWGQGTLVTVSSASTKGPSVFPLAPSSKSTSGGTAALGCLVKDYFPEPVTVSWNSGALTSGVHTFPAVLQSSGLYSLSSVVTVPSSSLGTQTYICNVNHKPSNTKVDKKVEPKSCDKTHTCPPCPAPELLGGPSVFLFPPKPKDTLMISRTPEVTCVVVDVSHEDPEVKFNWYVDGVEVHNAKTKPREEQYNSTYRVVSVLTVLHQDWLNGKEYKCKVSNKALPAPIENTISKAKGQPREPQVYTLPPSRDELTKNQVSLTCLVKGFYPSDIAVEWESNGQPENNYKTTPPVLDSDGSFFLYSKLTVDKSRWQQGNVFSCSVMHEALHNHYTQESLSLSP
light: B1 light
notes: also called Ho Ab K334_18N
B19: GpH7-A5/GpH7-B3 variant E333_16H/GpL16-k0 (antibody, human IgG1, kappa)
heavy 1: not shown
heavy 2: not shown
light: B1 light
notes: also called He Ab E333_16H
B20: GpH7-B3 variant S298_14T/GpL16-k0 (antibody, human IgG1, kappa)
heavy: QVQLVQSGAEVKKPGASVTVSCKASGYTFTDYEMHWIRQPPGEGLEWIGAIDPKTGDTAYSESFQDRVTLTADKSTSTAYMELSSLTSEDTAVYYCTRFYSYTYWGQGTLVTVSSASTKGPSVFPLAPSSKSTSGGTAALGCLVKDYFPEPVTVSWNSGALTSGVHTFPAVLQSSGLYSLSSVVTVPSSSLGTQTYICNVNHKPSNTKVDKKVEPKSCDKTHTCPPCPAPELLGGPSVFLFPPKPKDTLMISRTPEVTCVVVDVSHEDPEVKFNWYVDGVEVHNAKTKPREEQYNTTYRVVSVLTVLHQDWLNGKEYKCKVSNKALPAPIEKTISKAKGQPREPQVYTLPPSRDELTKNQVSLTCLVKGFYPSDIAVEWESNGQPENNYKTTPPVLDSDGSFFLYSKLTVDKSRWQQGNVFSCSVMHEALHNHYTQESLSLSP
light: B1 light
notes: also called Ho Ab S298_14T
B21: GpH7-A5/GpH7-B3 variant A330_20W/GpL16-k0 (antibody, human IgG1, kappa)
heavy 1: not shown
heavy 2: not shown
light: B1 light
notes: also called He Ab A330_20W
B22: GpH7-A5/GpH7-B3 variant I332_01G/GpL16-k0 (antibody, human IgG1, kappa)
heavy 1: not shown
heavy 2: not shown
light: B1 light
notes: also called He Ab I332_01G
B23: GpH7-B3 variant K334_05P/GpL16-k0 (antibody, human IgG1, kappa)
heavy: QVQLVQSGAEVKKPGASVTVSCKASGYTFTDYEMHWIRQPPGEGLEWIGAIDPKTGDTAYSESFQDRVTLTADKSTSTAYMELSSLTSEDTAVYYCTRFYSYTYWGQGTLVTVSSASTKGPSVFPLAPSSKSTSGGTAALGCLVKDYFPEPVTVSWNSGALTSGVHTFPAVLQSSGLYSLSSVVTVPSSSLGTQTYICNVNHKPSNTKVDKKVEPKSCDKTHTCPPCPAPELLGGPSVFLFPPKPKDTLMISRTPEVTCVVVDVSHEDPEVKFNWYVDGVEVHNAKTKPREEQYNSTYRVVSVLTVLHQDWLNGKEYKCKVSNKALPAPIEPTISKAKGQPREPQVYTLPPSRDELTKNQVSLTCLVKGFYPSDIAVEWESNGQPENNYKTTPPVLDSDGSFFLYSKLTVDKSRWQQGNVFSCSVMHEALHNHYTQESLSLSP
light: B1 light
notes: also called Ho Ab K334_05P
B24: GpH7-A5/GpH7-B3 variant A330_08L/GpL16-k0 (antibody, human IgG1, kappa)
heavy 1: not shown
heavy 2: not shown
light: B1 light
notes: also called He Ab A330_08L
B25: GpH7-B3 variant S337_09D/GpL16-k0 (antibody, human IgG1, kappa)
heavy: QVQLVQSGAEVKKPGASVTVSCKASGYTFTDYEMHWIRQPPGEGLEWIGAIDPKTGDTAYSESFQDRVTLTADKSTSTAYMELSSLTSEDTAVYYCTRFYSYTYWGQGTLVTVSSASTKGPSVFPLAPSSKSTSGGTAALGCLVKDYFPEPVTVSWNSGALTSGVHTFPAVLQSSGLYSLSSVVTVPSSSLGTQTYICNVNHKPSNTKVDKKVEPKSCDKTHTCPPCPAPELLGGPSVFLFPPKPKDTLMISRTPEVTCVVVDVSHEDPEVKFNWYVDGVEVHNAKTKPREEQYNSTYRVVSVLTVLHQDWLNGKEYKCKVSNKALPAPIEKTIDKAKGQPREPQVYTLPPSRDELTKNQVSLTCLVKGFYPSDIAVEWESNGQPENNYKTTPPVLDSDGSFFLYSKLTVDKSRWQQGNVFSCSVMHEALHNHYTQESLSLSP
light: B1 light
notes: also called Ho Ab S337_09D
B26: GpH7-B3 variant K334_13S/GpL16-k0 (antibody, human IgG1, kappa)
heavy: not shown
light: B1 light
notes: also called Ho Ab K334_13S
B27: GpH7-A5/GpH7-B3 variant I336_14T/GpL16-k0 (antibody, human IgG1, kappa)
heavy 1: not shown
heavy 2: not shown
light: B1 light
notes: also called He Ab I336_14T
B28: GpH7-B3 variant T335_10E/GpL16-k0 (antibody, human IgG1, kappa)
heavy: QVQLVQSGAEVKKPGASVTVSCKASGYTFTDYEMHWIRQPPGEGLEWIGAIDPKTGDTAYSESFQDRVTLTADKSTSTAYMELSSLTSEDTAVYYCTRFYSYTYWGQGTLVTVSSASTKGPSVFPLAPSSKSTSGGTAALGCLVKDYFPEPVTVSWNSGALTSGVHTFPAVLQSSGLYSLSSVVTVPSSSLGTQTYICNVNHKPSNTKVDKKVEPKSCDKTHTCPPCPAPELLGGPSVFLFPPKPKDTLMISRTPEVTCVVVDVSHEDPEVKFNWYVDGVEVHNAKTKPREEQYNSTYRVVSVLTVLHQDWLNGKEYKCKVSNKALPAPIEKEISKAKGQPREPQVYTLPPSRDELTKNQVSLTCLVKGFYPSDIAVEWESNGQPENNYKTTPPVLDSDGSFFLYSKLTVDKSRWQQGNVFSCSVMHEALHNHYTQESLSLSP
light: B1 light
notes: also called Ho Ab T335_10E
B29: GpH7-B3 variant Q295_14T/GpL16-k0 (antibody, human IgG1, kappa)
heavy: not shown
light: B1 light
notes: also called Ho Ab Q295_14T

Each binder was assayed against T1, FcγRIIIa extracellular domain with C-terminal His tag (human, UniProt P08637 17-208) (assay: SPR Biacore, captured antibody, FcγR analyte, relative binding).
T1 construct: extracellular domain; also called FcgRIIIa; 3a; not shown: His tag attached to the C terminus
T1 sequence (P08637 17-208): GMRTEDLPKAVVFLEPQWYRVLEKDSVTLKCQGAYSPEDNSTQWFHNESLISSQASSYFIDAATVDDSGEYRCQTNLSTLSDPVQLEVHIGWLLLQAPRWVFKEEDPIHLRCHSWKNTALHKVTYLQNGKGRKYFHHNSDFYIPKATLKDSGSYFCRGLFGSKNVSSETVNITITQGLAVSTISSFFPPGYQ
Procedure: Analysis of interaction between objective antibody and the FcγR was carried out using Biacore T100 (GE Healthcare). HBS-EP+ (GE Healthcare) was used as the running buffer, and the measurement temperature was set to 25° C. Chips produced by immobilizing the antigen peptide by the amine coupling method to a Series S Sencor Chip CM5 (GE Healthcare), or alternatively, chips produced by allowing preliminarily biotinylated antigen peptides to interact with and immobilize onto a Series S Sensor Chip SA (certified) (GE Healthcare) were used. Antibodies of interest were captured onto an antigen peptide-immobilized chip, and allowed to interact to each FcγR diluted with running buffer. To regenerate and repeatedly use the chip, the antibodies captured on the chip were washed off by reacting 10 mM glycine-HCl, pH 1.5.

| He/Con_3a | Ho/Con_3a | Binder |
| --- | --- | --- |
| 186 % of HeCon Ab GpH7-A5/GpH7-B3/GpL16-k0 (=100) |  | B1 |
|  | 102 % of HoCon Ab GpH7-B3/GpL16-k0 (=100) | B2 |
|  | 192 % of HoCon Ab GpH7-B3/GpL16-k0 (=100) | B3 |
| 115 % of HeCon Ab GpH7-A5/GpH7-B3/GpL16-k0 (=100) |  | B4 |
|  | 170 % of HoCon Ab GpH7-B3/GpL16-k0 (=100) | B5 |
|  | 160 % of HoCon Ab GpH7-B3/GpL16-k0 (=100) | B6 |
|  | 111 % of HoCon Ab GpH7-B3/GpL16-k0 (=100) | B7 |
| 119 % of HeCon Ab GpH7-A5/GpH7-B3/GpL16-k0 (=100) |  | B8 |
|  | 180 % of HoCon Ab GpH7-B3/GpL16-k0 (=100) | B9 |
| 139 % of HeCon Ab GpH7-A5/GpH7-B3/GpL16-k0 (=100) |  | B10 |
| 110 % of HeCon Ab GpH7-A5/GpH7-B3/GpL16-k0 (=100) |  | B11 |
|  | 153 % of HoCon Ab GpH7-B3/GpL16-k0 (=100) | B12 |
| 112 % of HeCon Ab GpH7-A5/GpH7-B3/GpL16-k0 (=100) |  | B13 |
| 134 % of HeCon Ab GpH7-A5/GpH7-B3/GpL16-k0 (=100) |  | B14 |
| 111 % of HeCon Ab GpH7-A5/GpH7-B3/GpL16-k0 (=100) |  | B15 |
|  | 107 % of HoCon Ab GpH7-B3/GpL16-k0 (=100) | B16 |
| 104 % of HeCon Ab GpH7-A5/GpH7-B3/GpL16-k0 (=100) |  | B17 |
|  | 156 % of HoCon Ab GpH7-B3/GpL16-k0 (=100) | B18 |
| 103 % of HeCon Ab GpH7-A5/GpH7-B3/GpL16-k0 (=100) |  | B19 |
|  | 107 % of HoCon Ab GpH7-B3/GpL16-k0 (=100) | B20 |
| 104 % of HeCon Ab GpH7-A5/GpH7-B3/GpL16-k0 (=100) |  | B21 |
| 111 % of HeCon Ab GpH7-A5/GpH7-B3/GpL16-k0 (=100) |  | B22 |
|  | 165 % of HoCon Ab GpH7-B3/GpL16-k0 (=100) | B23 |
| 124 % of HeCon Ab GpH7-A5/GpH7-B3/GpL16-k0 (=100) |  | B24 |
|  | 106 % of HoCon Ab GpH7-B3/GpL16-k0 (=100) | B25 |
|  | 153 % of HoCon Ab GpH7-B3/GpL16-k0 (=100) | B26 |
| 108 % of HeCon Ab GpH7-A5/GpH7-B3/GpL16-k0 (=100) |  | B27 |
|  | 102 % of HoCon Ab GpH7-B3/GpL16-k0 (=100) | B28 |
|  | 108 % of HoCon Ab GpH7-B3/GpL16-k0 (=100) | B29 |
